The results in this text go back to US20210230570.

Sequences and labels used below:
B1: FIXa-K247N/N249S/R318Y/T343R/R403E (protein)
chain 1: YNSGKLEEFVQGNLERECMEEKCSFEEAREVFENTERTTEFWKQYVDGDQCESNPCLNGGSCKDDINSYECWCPFGFEGKNCELDVTCNIKNGRCEQFCKNSADNKVVCSCTEGYRLAENQKSCEPAVPFPCGRVSVSQTSKLTR
chain 2: VVGGEDAKPGQFPWQVVLNGKVDAFCGGSIVNEKWIVTAAHCVETGVKITVVAGEHNIEETEHTEQNRSVIRIIPHHNYNAAINKYNHDIALLELDEPLVLNSYVTPICIADKEYTNIFLKFGSGYVSGWGRVFHKGYSALVLQYLRVPLVDRATCLRSTKFRIYNNMFCAGFHEGGRDSCQGDSGGPHVTEVEGTSFLTGIISWGEECAMKGKYGIYTKVSEYVNWIKEKTKLT
B2: FIXa-Y155F/R318Y/R338E/T343R (protein)
chain 1: YNSGKLEEFVQGNLERECMEEKCSFEEAREVFENTERTTEFWKQYVDGDQCESNPCLNGGSCKDDINSYECWCPFGFEGKNCELDVTCNIKNGRCEQFCKNSADNKVVCSCTEGYRLAENQKSCEPAVPFPCGRVSVSQTSKLTR
chain 2: VVGGEDAKPGQFPWQVVLNGKVDAFCGGSIVNEKWIVTAAHCVETGVKITVVAGEHNIEETEHTEQKRNVIRIIPHHNYNAAINKYNHDIALLELDEPLVLNSYVTPICIADKEYTNIFLKFGSGYVSGWGRVFHKGYSALVLQYLRVPLVDRATCLESTKFRIYNNMFCAGFHEGGRDSCQGDSGGPHVTEVEGTSFLTGIISWGEECAMKGKYGIYTKVSRYVNWIKEKTKLT
B3: FIXa-Y155F/K247N/N249S/R338E/T343R/E410N (protein)
chain 1: YNSGKLEEFVQGNLERECMEEKCSFEEAREVFENTERTTEFWKQYVDGDQCESNPCLNGGSCKDDINSYECWCPFGFEGKNCELDVTCNIKNGRCEQFCKNSADNKVVCSCTEGYRLAENQKSCEPAVPFPCGRVSVSQTSKLTR
chain 2: VVGGEDAKPGQFPWQVVLNGKVDAFCGGSIVNEKWIVTAAHCVETGVKITVVAGEHNIEETEHTEQNRSVIRIIPHHNYNAAINKYNHDIALLELDEPLVLNSYVTPICIADKEYTNIFLKFGSGYVSGWGRVFHKGRSALVLQYLRVPLVDRATCLESTKFRIYNNMFCAGFHEGGRDSCQGDSGGPHVTEVEGTSFLTGIISWGEECAMKGKYGIYTKVSRYVNWIKNKTKLT
B4: FIXa-K247N/N249S/T343R/R403E/E410N (protein)
chain 1: YNSGKLEEFVQGNLERECMEEKCSFEEAREVFENTERTTEFWKQYVDGDQCESNPCLNGGSCKDDINSYECWCPFGFEGKNCELDVTCNIKNGRCEQFCKNSADNKVVCSCTEGYRLAENQKSCEPAVPFPCGRVSVSQTSKLTR
chain 2: VVGGEDAKPGQFPWQVVLNGKVDAFCGGSIVNEKWIVTAAHCVETGVKITVVAGEHNIEETEHTEQNRSVIRIIPHHNYNAAINKYNHDIALLELDEPLVLNSYVTPICIADKEYTNIFLKFGSGYVSGWGRVFHKGRSALVLQYLRVPLVDRATCLRSTKFRIYNNMFCAGFHEGGRDSCQGDSGGPHVTEVEGTSFLTGIISWGEECAMKGKYGIYTKVSEYVNWIKNKTKLT
B5: FIXa-K247N/N249S/R318Y/T343R/E410N (protein)
chain 1: YNSGKLEEFVQGNLERECMEEKCSFEEAREVFENTERTTEFWKQYVDGDQCESNPCLNGGSCKDDINSYECWCPFGFEGKNCELDVTCNIKNGRCEQFCKNSADNKVVCSCTEGYRLAENQKSCEPAVPFPCGRVSVSQTSKLTR
chain 2: VVGGEDAKPGQFPWQVVLNGKVDAFCGGSIVNEKWIVTAAHCVETGVKITVVAGEHNIEETEHTEQNRSVIRIIPHHNYNAAINKYNHDIALLELDEPLVLNSYVTPICIADKEYTNIFLKFGSGYVSGWGRVFHKGYSALVLQYLRVPLVDRATCLRSTKFRIYNNMFCAGFHEGGRDSCQGDSGGPHVTEVEGTSFLTGIISWGEECAMKGKYGIYTKVSRYVNWIKNKTKLT
B6: FIXa-Y155F/K247N/N249S/T343R/R403E/E410N (protein)
chain 1: YNSGKLEEFVQGNLERECMEEKCSFEEAREVFENTERTTEFWKQYVDGDQCESNPCLNGGSCKDDINSYECWCPFGFEGKNCELDVTCNIKNGRCEQFCKNSADNKVVCSCTEGYRLAENQKSCEPAVPFPCGRVSVSQTSKLTR
chain 2: VVGGEDAKPGQFPWQVVLNGKVDAFCGGSIVNEKWIVTAAHCVETGVKITVVAGEHNIEETEHTEQNRSVIRIIPHHNYNAAINKYNHDIALLELDEPLVLNSYVTPICIADKEYTNIFLKFGSGYVSGWGRVFHKGRSALVLQYLRVPLVDRATCLRSTKFRIYNNMFCAGFHEGGRDSCQGDSGGPHVTEVEGTSFLTGIISWGEECAMKGKYGIYTKVSEYVNWIKNKTKLT
B7: FIXa-R318Y/R338E/T343R (protein)
chain 1: YNSGKLEEFVQGNLERECMEEKCSFEEAREVFENTERTTEFWKQYVDGDQCESNPCLNGGSCKDDINSYECWCPFGFEGKNCELDVTCNIKNGRCEQFCKNSADNKVVCSCTEGYRLAENQKSCEPAVPFPCGRVSVSQTSKLTR
chain 2: VVGGEDAKPGQFPWQVVLNGKVDAFCGGSIVNEKWIVTAAHCVETGVKITVVAGEHNIEETEHTEQKRNVIRIIPHHNYNAAINKYNHDIALLELDEPLVLNSYVTPICIADKEYTNIFLKFGSGYVSGWGRVFHKGYSALVLQYLRVPLVDRATCLESTKFRIYNNMFCAGFHEGGRDSCQGDSGGPHVTEVEGTSFLTGIISWGEECAMKGKYGIYTKVSRYVNWIKEKTKLT
B8: FIXa-K247N/N249S/R338E/T343R/E410N (protein)
chain 1: YNSGKLEEFVQGNLERECMEEKCSFEEAREVFENTERTTEFWKQYVDGDQCESNPCLNGGSCKDDINSYECWCPFGFEGKNCELDVTCNIKNGRCEQFCKNSADNKVVCSCTEGYRLAENQKSCEPAVPFPCGRVSVSQTSKLTR
chain 2: VVGGEDAKPGQFPWQVVLNGKVDAFCGGSIVNEKWIVTAAHCVETGVKITVVAGEHNIEETEHTEQNRSVIRIIPHHNYNAAINKYNHDIALLELDEPLVLNSYVTPICIADKEYTNIFLKFGSGYVSGWGRVFHKGRSALVLQYLRVPLVDRATCLESTKFRIYNNMFCAGFHEGGRDSCQGDSGGPHVTEVEGTSFLTGIISWGEECAMKGKYGIYTKVSRYVNWIKNKTKLT
B9: FIXa-Y155F/K247N/N249S/R338E/T343R/R403E (protein)
chain 1: YNSGKLEEFVQGNLERECMEEKCSFEEAREVFENTERTTEFWKQYVDGDQCESNPCLNGGSCKDDINSYECWCPFGFEGKNCELDVTCNIKNGRCEQFCKNSADNKVVCSCTEGYRLAENQKSCEPAVPFPCGRVSVSQTSKLTR
chain 2: VVGGEDAKPGQFPWQVVLNGKVDAFCGGSIVNEKWIVTAAHCVETGVKITVVAGEHNIEETEHTEQNRSVIRIIPHHNYNAAINKYNHDIALLELDEPLVLNSYVTPICIADKEYTNIFLKFGSGYVSGWGRVFHKGRSALVLQYLRVPLVDRATCLESTKFRIYNNMFCAGFHEGGRDSCQGDSGGPHVTEVEGTSFLTGIISWGEECAMKGKYGIYTKVSEYVNWIKEKTKLT
B10: FIXa-Y155F/K247N/N249S/R318Y/T343R/E410N (protein)
chain 1: YNSGKLEEFVQGNLERECMEEKCSFEEAREVFENTERTTEFWKQYVDGDQCESNPCLNGGSCKDDINSYECWCPFGFEGKNCELDVTCNIKNGRCEQFCKNSADNKVVCSCTEGYRLAENQKSCEPAVPFPCGRVSVSQTSKLTR
chain 2: VVGGEDAKPGQFPWQVVLNGKVDAFCGGSIVNEKWIVTAAHCVETGVKITVVAGEHNIEETEHTEQNRSVIRIIPHHNYNAAINKYNHDIALLELDEPLVLNSYVTPICIADKEYTNIFLKFGSGYVSGWGRVFHKGYSALVLQYLRVPLVDRATCLRSTKFRIYNNMFCAGFHEGGRDSCQGDSGGPHVTEVEGTSFLTGIISWGEECAMKGKYGIYTKVSRYVNWIKNKTKLT

This data set deals with Factor X (FX), P00742.
Sequence of Factor X (FX), P00742 (P00742 whole entry, looked up): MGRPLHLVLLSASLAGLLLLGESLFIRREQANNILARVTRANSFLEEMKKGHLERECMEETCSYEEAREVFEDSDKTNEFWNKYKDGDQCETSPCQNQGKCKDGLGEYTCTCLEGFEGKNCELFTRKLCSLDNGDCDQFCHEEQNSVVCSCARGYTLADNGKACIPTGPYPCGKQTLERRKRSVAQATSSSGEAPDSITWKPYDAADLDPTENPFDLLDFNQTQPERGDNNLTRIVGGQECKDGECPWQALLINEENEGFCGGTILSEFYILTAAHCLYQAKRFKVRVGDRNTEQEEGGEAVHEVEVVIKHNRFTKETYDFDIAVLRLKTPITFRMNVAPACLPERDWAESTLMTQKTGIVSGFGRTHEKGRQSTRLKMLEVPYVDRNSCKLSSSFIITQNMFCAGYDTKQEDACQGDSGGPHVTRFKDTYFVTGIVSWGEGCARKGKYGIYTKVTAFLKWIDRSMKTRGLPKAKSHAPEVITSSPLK
Regarding B1, the kcat (commonly the maximal rate divided by the concentration of active sites) was 3.7 s⁻¹ and the kcat/KM – broadly, the turnover number divided by the Michaelis constant – was 3.9e+07 M⁻¹ s⁻¹.

In the case of B2, the kcat amounted to 7.9 s⁻¹ and the kcat/KM came to 3.6e+08 M⁻¹ s⁻¹.

As for B3, the kcat is 4.8 s⁻¹ and the kcat/KM amounted to 1.8e+08 M⁻¹ s⁻¹.

Regarding B4, the kcat was found to be 8 s⁻¹ and the catalytic efficiency (kcat/KM) was found to be 1.3e+08 M⁻¹ s⁻¹.

As for B5, the turnover number (kcat) was determined as 6.1 s⁻¹ and the kcat/KM was 2e+08 M⁻¹ s⁻¹.

B6: the catalytic constant (kcat) was found to be 15 s⁻¹ and the kcat/KM was 2.9e+08 M⁻¹ s⁻¹.

Consider B7, for which the catalytic constant (kcat) came out at 4.5 s⁻¹ and the kcat/KM was 1.5e+08 M⁻¹ s⁻¹.

For the protein B8, the kcat worked out at 7.9 s⁻¹ and the kcat/KM was 3.1e+08 M⁻¹ s⁻¹.

Regarding B9, the kcat is 14.6 s⁻¹ and the kcat/KM came out at 5.9e+08 M⁻¹ s⁻¹.

With B10, the kcat was 8.1 s⁻¹ and the kcat/KM turned out to be 3.1e+08 M⁻¹ s⁻¹.
